The values that follow come from publication PMC5397206.

The target of this assay is Prp43 (yeast) (UniProt P53131).
UniProt P53131, sequence (P53131 whole entry): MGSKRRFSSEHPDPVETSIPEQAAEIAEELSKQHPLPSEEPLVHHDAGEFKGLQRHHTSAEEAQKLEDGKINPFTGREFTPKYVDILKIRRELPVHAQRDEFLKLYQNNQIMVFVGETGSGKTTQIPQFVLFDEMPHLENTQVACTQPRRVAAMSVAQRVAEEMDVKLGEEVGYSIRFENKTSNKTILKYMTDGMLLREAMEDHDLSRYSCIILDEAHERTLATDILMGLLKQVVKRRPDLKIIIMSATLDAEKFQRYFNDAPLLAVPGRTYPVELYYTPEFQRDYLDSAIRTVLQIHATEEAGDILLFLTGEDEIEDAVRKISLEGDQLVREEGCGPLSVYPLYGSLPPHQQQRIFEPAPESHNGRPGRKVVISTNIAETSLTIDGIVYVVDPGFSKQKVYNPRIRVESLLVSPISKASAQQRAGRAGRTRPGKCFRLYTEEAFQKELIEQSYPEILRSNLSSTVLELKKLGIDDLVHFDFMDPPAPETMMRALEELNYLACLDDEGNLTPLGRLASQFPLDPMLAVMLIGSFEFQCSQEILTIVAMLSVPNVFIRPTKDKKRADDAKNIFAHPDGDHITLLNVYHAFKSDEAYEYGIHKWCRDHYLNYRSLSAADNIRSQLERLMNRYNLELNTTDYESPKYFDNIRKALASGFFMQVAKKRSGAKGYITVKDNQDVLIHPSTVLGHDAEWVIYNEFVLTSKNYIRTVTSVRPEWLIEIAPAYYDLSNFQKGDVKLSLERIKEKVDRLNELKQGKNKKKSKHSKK

B1: Pfa1 full-length (Pfa1FL) (natural protein)
chain: MAKRHSHYQGSRRRHARGSNSKKAGRGNAKGIQGRKIKKKPTPTNSWHNSSIPLGEGDLDDVGADFNPGRAFISPKTIEDYYFGRDAKSRSMKMGGLRPGNRYDSSTDLQAGRAAFRKRPMQFVKAKEVYDPSHNMIQKLRAKNETKNSEEIVEREADVFEEPGKMTSDVEYINNEDSENEDDDSQNSPSTDHSLSSNESKVEDGDLFFVDEEAQQSPDLTKIKRVCIEEIARPREVAIEFDPILTIGKVELSVSEGNESKEISVDVPNKGNKTYHPFAGYISNVLHGMHTSDSDNDELDYEIETENNSEPLYESSASSEVDQGFNYVGQRHNSRADNNLLPSPSPQLTEDIKCLSINGTKTFEGNNDNLPSPASEELEFGFKEEDFVINTNDIVVSNIRMGGVDNSYYLRCYRLLGDYDFHWIDQDLLTDFVVDELGLPEDRLPAYLNFIKNSLIPKIEPAEPTYSDIPISDSSDEGDSYEGDSYEDDEDMASSVVHSDIEEGLDDLIAYTLKHDTERFKTFETKSLETKGKGKKKKLLIDDALALDTETLETLQSKFSKRIETKAKKRKAKEDFIDQENRNSNDMLKKYPYGLHIQNIKDEFESFLSRNNDRLTFPPLDPHGNKTVMKIAKHYNMKSSKIGKANHTSVVVEKIKKTKWSSPNYSLIDQLMRQRPVFMRIDIRRPREEQAAFERTKTIRGKFHVKEGEIVGQNAPEIGNENIGRRMLEKLGWKSGEGLGIQGNKGISEPIFAKIKKNRSGLRHSES
Take B1: the catalytic efficiency of Prp43 ATPase (kcat/KM), Pfa1FL versus Pfa1GP worked out at 3 fold.
